Positions count from the first letter of the chain named. Ends that are not written are not given here. * marks the point of attachment. GlcNAc2 = N-linked chitobiose, CC(=O)N[C@@H]1[C@@H](O)[C@H](O[C@@H]2O[C@H](CO)[C@@H](O)[C@H](O)[C@H]2NC(C)=O)[C@@H](CO)O[C@H]1*
T1: MUC16^c114-N3 (human, chain 1 pos 1 and pos 24: N-glycosylated Asn (cell-made glycans), written N)
T1 construct: MUC16^c114 with Asn30 (Asn1806) changed to Ala, on SKOV3 cells; also called N30 mut c114; SKOV3-N30 mutc114; not shown: hrGFP of the phrGFP II-C vector, fused at the cytoplasmic carboxy-terminus
T1 chain: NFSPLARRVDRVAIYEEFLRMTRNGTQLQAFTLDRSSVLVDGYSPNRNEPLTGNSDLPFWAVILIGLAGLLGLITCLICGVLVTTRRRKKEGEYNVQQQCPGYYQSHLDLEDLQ

T2: MUC16^c114 (human, capable of N-glycosylation at Asn1, Asn24 and Asn30 ; chain 1 pos 1, 24, 30: Asn capable of N-glycosylation on the transfected cells, written N)
T2 construct: The forward primer adds Met-Val before Asn1; also called MUC16^c114-GFP; SKOV3 MUC16^c114; not shown: hrGFP of the phrGFP II-C vector fused at the cytoplasmic carboxy-terminus, with its short cloning linker
T2 chain: T1 chain with A30N

T3: MUC16^c114-N1 (human, chain 1 pos 24 and pos 30: N-glycosylated Asn (cell-made glycans), written N)
T3 construct: MUC16^c114 with Asn1 (Asn1777) changed to Ala, on SKOV3 cells; also called N1 mut c114; SKOV3 MUC16^c114-N1; not shown: hrGFP of the phrGFP II-C vector, fused at the cytoplasmic carboxy-terminus
T3 chain: T1 chain with N1A, A30N

T4: MUC16 18mer (not fully specified)
T4 construct: also called non-glycosylated 18-mer MUC16 peptide
T4 peptide: CTRNGTQLQNFTLDRSSV

T5: (GlcNAc2)2-18-mer glycopeptide, unconjugated (human)
T5 construct: Used in ELISA without KLH; also called 18-mer(chitobiose)2[C-T22-V38]; 18mer-chitobiose peptide
T5 peptide: Ac-CTRN(GlcNAc2)GTQLQN(GlcNAc2)FTLDRSSV-NH2

T6: MUC16 18mer + GlcNAc2-FUCOSE1 (also: N-linked GlcNAc2Fuc (fucosylated chitobiose), Asn site not given here)
T6 construct: also called 18-mer with fucosylated chitobiose (GlcNAc2Fuc)
T6 peptide: CTRNGTQLQNFTLDRSSV

T7: MUC16 unrelated peptide 18mer
T7 construct: Negative control peptide without glycan
T7 peptide: GAVPRSATINVSRIATGP

T8: MUC16 nonglycosylated peptide 2 (human)
T8 construct: Peptide used to elicit the 4H11 antibody; also called nonglycosylated MUC16 peptide 2
T8 peptide: CTLDRSSVLVDGYSPNRNE

T9: MUC16 unrelated peptide 18mer+GlcNAc2 (also: GlcNAc2 (chitobiose), site not given here)
T9 construct: Negative control glycopeptide; also called unrelated chitobiose-linked peptide
T9 peptide: GAVPRSATINVSRIATGP

T10: non-glycosylated 15-mer MUC16 peptide (human)
T10 construct: Same peptide as the GlcNAc2-15-mer without the glycan; also called unglycosylated 15-mer
T10 peptide: CGTQLQNFTLDRSSV

B1: 18C6.D12 (antibody, V domains shown)
VH: QVTLKESGPGILQPSQTLSLTCSFSGFSLSTVGMGVGWSRQPSGKGLEWLAHIWWDDEDKYYNPALKSRLTISKDTSKNQVFLKIANVDTADTATYYCTRIGTAQATDALDYWGQGTSVTVSS
VL: DIVMTQAAPSVPVTPGESVSISCRSSKSLLHSNGNTYLYWFLQRPGQSPQRLIYYMSNLASGVPDRFSGRGSGTDFTLRISRVEAEDVGVYYCMQSLEYPLTFGGGTKLEIK
notes: Mouse monoclonal from a hybridoma; also called MUC16 Glycosylation Antibody 18C6
B2: 19C11.H6 (antibody, V domains shown)
VH: QVNLKESGPGKLQPSQTLSLTCSFSGFSLSTLGMGVGWIRQSSGKGLEWLAHIWWDDDKYYNPALKSRLTISRATSKNQVFLKIVNVGTADTATYYCARIGTAQATDALDYWGQGTSVTVSS
VL: B1 VL with V11I, R79K, E86G, S96G, Y99H
notes: Mouse monoclonal from a hybridoma; Used as 89Zr-DFO-labelled antibody in the internalization assay; also called MUC16 Glycosylation Antibody 19C11
B3: 7B12.B3 (antibody, V domains shown)
VH: B1 VH with T93S
VL: B1 VL with P12S, L30R, H31K, E110K
notes: Mouse monoclonal from a hybridoma; also called MUC16 Glycosylation Antibody 7B12

Assays:
MUC16^c114-N3 = target: T1, MUC16^c114-N3; assay: FACS, SKOV3-N30 mutc114
MUC16^c114 = target: T2, MUC16^c114; assay: FACS, SKOV3 transfectant, goat anti-mouse IgG-PE
MUC16^c114-N1 = target: T3, MUC16^c114-N1; assay: FACS, SKOV3 transfectant, goat anti-mouse IgG-PE
MUC16 18mer = target: T4, MUC16 18mer; assay: ELISA during fusion screen, dilution 400, column 18
[1] = target: T5, (GlcNAc2)2-18-mer glycopeptide, …; assay: ELISA during fusion screen, dilution 400, column 18S
[2] = target: T5, (GlcNAc2)2-18-mer glycopeptide, …; assay: sandwich ELISA on 'MUC16 18mer + GlcNAc2'; Blank 0.029
[3] = target: T6, MUC16 18mer + GlcNAc2-FUCOSE1; assay: sandwich ELISA on 'MUC16 18mer + GlcNAc2-FUCOSE1'; Blank 0.044
[4] = target: T7, MUC16 unrelated peptide 18mer; assay: sandwich ELISA on 'MUC16 unrelated peptide 18mer'; Blank 0.013
[5] = target: T8, MUC16 nonglycosylated peptide 2; assay: sandwich ELISA on 'MUC16 Nonglycosylated Peptide2'; Blank 0.029
[6] = target: T9, MUC16 unrelated peptide 18mer+GlcNAc2; assay: sandwich ELISA on 'MUC16 unrelated 18mer + GlcNAc2'; Blank 0.014
[7] = target: T10, non-glycosylated 15-mer MUC16 peptide; assay: ELISA 12/24/13 (sups from time of freezing), dilution 400, column 15

| Binder | geometric mean phycoerythrin (PE) fluorescence (MUC16^c114-N3) | Mean % PE (MUC16^c114) | Mean % PE (MUC16^c114-N1) | ELISA signal (MUC16 18mer) | ELISA signal [1] | ELISA signal [2] | ELISA signal [3] | ELISA signal [4] | ELISA signal [5] | ELISA signal [6] | ELISA signal [7] |
| --- | --- | --- | --- | --- | --- | --- | --- | --- | --- | --- | --- |
| B1 | 1700 | 73.1% | 83% | 0.39 | 0.64 | 1.06 | 1.03 | 0.02 | 0.02 | 0.02 | 0.44 |
| B2 | 536 | 69.3% | 81.7% | 0.38 | 0.47 | 1.1 | 1.01 | 0.03 | 0.03 | 0.03 | 0.3 |
| B3 | – | – | – | 0.53 | 0.92 | 1.06 | 1.1 | 0.04 | 0.02 | 0.03 | 0.44 |

Reference: patent US20180112008A1 (Memorial Sloan Kettering, published 2018)
